Measurements: article PMC4333382, “RNA helicase A activity is inhibited by oncogenic transcription factor EWS-FLI1” (Nucleic Acids Research, 2015)
One block for each compound: values may come before it.

What was measured:
EWS-FLI1 = target: T1, EWS-FLI1 (UniProt F1JVV7); assay: EMSA
T1 sequence: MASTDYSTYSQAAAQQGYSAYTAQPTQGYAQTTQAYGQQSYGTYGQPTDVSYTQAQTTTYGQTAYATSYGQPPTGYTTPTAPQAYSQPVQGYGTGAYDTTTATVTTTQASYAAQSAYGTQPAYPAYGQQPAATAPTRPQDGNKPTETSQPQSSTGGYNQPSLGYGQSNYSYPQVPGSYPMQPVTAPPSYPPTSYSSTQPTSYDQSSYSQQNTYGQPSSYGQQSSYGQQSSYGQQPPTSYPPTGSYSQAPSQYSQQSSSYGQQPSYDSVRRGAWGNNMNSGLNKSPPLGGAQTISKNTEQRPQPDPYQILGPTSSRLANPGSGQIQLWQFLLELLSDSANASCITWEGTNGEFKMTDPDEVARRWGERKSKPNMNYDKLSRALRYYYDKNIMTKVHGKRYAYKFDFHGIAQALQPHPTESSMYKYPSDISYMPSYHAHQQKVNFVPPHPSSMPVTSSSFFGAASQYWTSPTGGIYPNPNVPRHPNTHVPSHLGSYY

RHA (RNA helicase A) = assay: EMSA
[1] = target: T2, RNA helicase A (RHA, DHX9) (Homo sapiens, UniProt Q08211); assay: dsRNA strand-separation gel assay; type: biochemical; details: 2 mM nucleotide, 2 mM MgCl2, pH 7.5, dsRNA
T2 construct: full-length, N-terminal His-tag, baculovirus / Sf9 cells, nickel IMAC and heparin purified

RNA helicase A (human) [2] = target: RNA helicase A (human) (UniProt Q08211)
RNA helicase A (human) [3] = target: RNA helicase A (human) (UniProt Q08211); assay: SPR; RHA amine-coupled to a CM5 chip (~1800 RU); EWS-FLI1 as analyte at 24 to 0.375 nM; HBS-P with 1-mM TCEP, 2-mM MgCl2, 0.1-M imidazole, pH 7.4; flow 100 ul/min, contact 60 s, dissociation 600 s; sample compartment at 10°C; 1:1 Langmuir model; Biacore T-200
RNA helicase A (human) [4] = target: RNA helicase A (human) (UniProt Q08211); remark: listed apart in the source

Sequence of RNA helicase A (human) (Q08211 whole entry): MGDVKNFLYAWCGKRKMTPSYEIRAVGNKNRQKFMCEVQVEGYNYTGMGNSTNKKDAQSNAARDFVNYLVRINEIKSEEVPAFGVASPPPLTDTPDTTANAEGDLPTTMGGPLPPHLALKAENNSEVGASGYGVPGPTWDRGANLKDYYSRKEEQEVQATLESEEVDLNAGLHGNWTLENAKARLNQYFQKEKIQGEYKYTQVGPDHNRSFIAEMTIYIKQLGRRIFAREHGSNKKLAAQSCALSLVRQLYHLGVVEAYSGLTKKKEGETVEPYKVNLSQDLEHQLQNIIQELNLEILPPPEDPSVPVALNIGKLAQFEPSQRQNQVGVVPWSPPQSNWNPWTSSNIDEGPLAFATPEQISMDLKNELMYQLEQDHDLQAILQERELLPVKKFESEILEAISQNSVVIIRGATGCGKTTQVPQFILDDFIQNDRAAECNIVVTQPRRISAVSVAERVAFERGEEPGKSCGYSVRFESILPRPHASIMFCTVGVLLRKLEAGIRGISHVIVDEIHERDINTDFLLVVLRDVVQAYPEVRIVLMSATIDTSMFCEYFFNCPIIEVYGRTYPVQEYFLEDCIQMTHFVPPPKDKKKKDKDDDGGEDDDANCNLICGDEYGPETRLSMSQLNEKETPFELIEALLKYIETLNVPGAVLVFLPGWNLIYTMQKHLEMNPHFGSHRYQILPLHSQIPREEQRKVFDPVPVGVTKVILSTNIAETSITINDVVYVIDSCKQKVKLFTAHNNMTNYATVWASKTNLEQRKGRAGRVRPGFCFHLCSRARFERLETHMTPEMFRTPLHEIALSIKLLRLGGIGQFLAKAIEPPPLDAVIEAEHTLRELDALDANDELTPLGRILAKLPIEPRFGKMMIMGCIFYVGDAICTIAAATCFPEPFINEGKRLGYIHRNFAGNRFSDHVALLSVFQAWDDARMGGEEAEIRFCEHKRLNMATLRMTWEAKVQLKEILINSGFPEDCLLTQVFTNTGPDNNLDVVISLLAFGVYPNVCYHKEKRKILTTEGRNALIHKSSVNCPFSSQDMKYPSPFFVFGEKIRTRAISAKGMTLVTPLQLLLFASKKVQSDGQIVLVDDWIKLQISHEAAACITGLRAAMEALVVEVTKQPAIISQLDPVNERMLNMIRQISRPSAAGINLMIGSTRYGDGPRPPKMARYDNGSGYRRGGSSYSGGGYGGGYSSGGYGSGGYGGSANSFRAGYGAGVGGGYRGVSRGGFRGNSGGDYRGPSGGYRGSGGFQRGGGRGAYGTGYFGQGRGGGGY
T2 sequence (Q08211 whole entry): as above

Compound: 350-nt partially double-stranded HDV RNA
Kd (EWS-FLI1): 30 nM
binding signal (fold decrease in affinity) (EWS-FLI1): 3
Kd (RHA (RNA helicase A)): 4.7 nM

Compound: Nc1ncnc2c1ncn2[C@@H]1O[C@H](COP(=O)(O)OP(=O)(O)OP(=O)(O)O)[C@@H](O)[C@H]1O [ATP]
dsRNA strand-separation gel assay [1]: Our purified RHA utilizes ATP, CTP, Uridine triphosphate (UTP) and Guanosine triphosphate (GTP)

Compound: Nc1ccn([C@@H]2O[C@H](COP(=O)(O)OP(=O)(O)OP(=O)(O)O)[C@@H](O)[C@H]2O)c(=O)n1 [CTP]
dsRNA strand-separation gel assay [1]: Our purified RHA utilizes ATP, CTP, Uridine triphosphate (UTP) and Guanosine triphosphate (GTP)

reduction of the initial velocity of RHA helicase activity (dsRNA strand separation), 1-nM RHA with 0.5 to 10 nM EWS-FLI1 (58% reduction at 1 nM) (RNA helicase A (human) [2]): 78%
Kd (RNA helicase A (human) [3]): 14 nM
koff (RNA helicase A (human) [3]): 0.03 s⁻¹
kon (RNA helicase A (human) [3]): 3.5e+06 M⁻¹ s⁻¹
helicase activity of 1-nM RHA in the presence of 1-nM EWS-FLI1 with racemic YK-4-279 or (S)-YK-4-279 (30 uM) (RNA helicase A (human) [4]): 80%
Compound: EWS-FLI1
